Test results reported in the supplement of paper PMC10567573.

Experiment: protein stability index of a GFP-peptide fusion (GPS, HEK-293T) (PSI 1-6); higher = more stable
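Note: lentivirally expressed fusions sorted by FACS into six bins by GFP to DsRed ratio, PSI derived from sequencing read proportions per bin multiplied by bin number.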

Q: For PRNSCITCPQCHRSLILDDRGLRG [TRIM9 WT], which protein stability index (parent: IOH12704_21, c terminus: a fixed tail appended) is on record?
A: 2.06

Q: For TNIRLPNVPSSSLPAQPNRKPGMS, which protein stability index (parent: IOH12461_31, c terminus: a fixed tail appended) is on record?
A: 4.51

Q: Which protein stability index (parent: IOH12673_30, c terminus: a fixed tail appended) does the source give for FQELAGKELCAMSEEQFRQRSPLG here?
A: 2.63

Q: Which protein stability index (parent: IOH12660_34, c terminus: a fixed tail appended) does the source give for DLKDDGNMMKVLRGHQNWVYSCAF here?
A: 2

Q: With FLPGGDMMTLLMKKDTLTEEETQF as the protein, how does the protein stability index (parent: IOH11742_29, c terminus: a fixed tail appended) read?
A: 2.21

Q: With IIKKVAEVALDKGCSQFRLAVLDW as the protein, how does the protein stability index (parent: IOH12374_19, c terminus: a fixed tail appended) read?
A: 2.44

Q: Which protein stability index (parent: IOH11209_33, c terminus: a fixed tail appended) does the source give for TKHKCRQLTKASLKPRGCSKPPWR here?
A: 2.75

Q: Which protein stability index (parent: IOH11039_42, c terminus: native) does the source give for YSPRRSRGSPRYSPRHSRSRSRT here?
A: 3.93

Q: With HYPFLGAMGDHSKKKPGTAMCVGC [ISL2 WT] as the protein, how does the protein stability index (parent: IOH10979_2, c terminus: a fixed tail appended) read?
A: 2.74

Q: With YSGAYGASVSDEELKRRVAEELAL [CHCHD3 WT] as the protein, how does the protein stability index (parent: IOH11162_9, c terminus: a fixed tail appended) read?
A: 2.57

Q: For LTKASLKPRGCSKPPWRPPGGKL, which protein stability index (parent: IOH11209_36, c terminus: native) is on record?
A: 2.04

Q: With RGVRRTASTPTPDDKLFQKLAKVY [CPN1 WT] as the protein, how does the protein stability index (parent: IOH11355_40, c terminus: a fixed tail appended) read?
A: 1.95

Q: Which protein stability index (parent: IOH11305_5, c terminus: a fixed tail appended) does the source give for CTACGSVLEDNIIVSEVQFVESSG here?
A: 3.03

Q: Which protein stability index (parent: IOH11095_45, c terminus: a fixed tail appended) does the source give for YSGGGYYLDLPGSRQGSAEALRAL here?
A: 1.95

Q: Which protein stability index (parent: IOH11244_11, c terminus: a fixed tail appended) does the source give for YLDPSVLSGVSCFVMFLCLADYLV [ARL6IP1 WT] here?
A: 2.87

Q: With FHEVGTEMIITKAGRRMFPSYKVK as the protein, how does the protein stability index (parent: IOH11603_12, c terminus: a fixed tail appended) read?
A: 2.15

Q: For KYMPHLCQDSSGEVSCQCQLHPPR [MGC27345 WT], which protein stability index (parent: IOH12124_9, c terminus: a fixed tail appended) is on record?
A: 2

Q: For LTEAEGWHFFCFQGEATRKLAGK, which protein stability index (parent: IOH12374_27, c terminus: native) is on record?
A: 2.13

Q: Which protein stability index (parent: IOH12461_3, c terminus: a fixed tail appended) does the source give for SSKSRAAPSPQEALVRLRETEEML here?
A: 1.94

Q: Which protein stability index (parent: IOH11065_64, c terminus: a fixed tail appended) does the source give for LREKLLEAEQSLRNLEDIHMSLEK here?
A: 2.56

Q: With RDIDLKNRRGGPPFAFVEFEDPRD as the protein, how does the protein stability index (parent: IOH11039_8, c terminus: a fixed tail appended) read?
A: 3.81

Q: With YEHHYHTLHGNVCSFCKRAFPSGH as the protein, how does the protein stability index (parent: IOH11805_17, c terminus: a fixed tail appended) read?
A: 2.07

Q: Which protein stability index (parent: IOH11095_116, c terminus: a fixed tail appended) does the source give for SGPEAARAGGWVSGEEFYMLTRRV here?
A: 2.25

Q: With FSDSSMDHFQKFLPTVGGQLGTAG [MYOZ1 WT] as the protein, how does the protein stability index (parent: IOH11059_14, c terminus: a fixed tail appended) read?
A: 2.43

Q: For NWKETLVFPPEVPISEKAKDLILR, which protein stability index (parent: IOH11742_57, c terminus: a fixed tail appended) is on record?
A: 3.08

Q: Which protein stability index (parent: IOH12673_12, c terminus: a fixed tail appended) does the source give for YPEDSSWAAKAPGASSREEPPEEP here?
A: 4.25

Q: For PTPAKRRSSALWSEMLDITMKESL, which protein stability index (parent: IOH11256_16, c terminus: a fixed tail appended) is on record?
A: 2.21

Q: For HLYPADFRFDKPKKSRSPASAEAP, which protein stability index (parent: IOH11805_29, c terminus: a fixed tail appended) is on record?
A: 2.92

Q: For LLEDMRASEAFHWDERGRAAAYSP, which protein stability index (parent: IOH11833_9, c terminus: a fixed tail appended) is on record?
A: 1.79

Q: For FDALDDYEHHYHTLHGNVCSFCKR, which protein stability index (parent: IOH11805_16, c terminus: a fixed tail appended) is on record?
A: 3.55

Q: For RQLAYSTVGTPDYIAPEVFMQTGY, which protein stability index (parent: IOH11742_47, c terminus: a fixed tail appended) is on record?
A: 2.48

Q: With LYKEELEQTYHAKLENARLSSEMN [LMNB1 WT] as the protein, how does the protein stability index (parent: IOH11078_44, c terminus: a fixed tail appended) read?
A: 2.79

Q: With FCIDSENRIGNSGVEEIKGHPFFE as the protein, how does the protein stability index (parent: IOH11742_61, c terminus: a fixed tail appended) read?
A: 2.18

Q: For GYGIYYFIYSTWKGRTIYLEDIYV, which protein stability index (parent: IOH12374_13, c terminus: a fixed tail appended) is on record?
A: 3

Q: For FAPLLDEQYDLATKRVRQLLDLDP [GOLPH3 WT], which protein stability index (parent: IOH12568_43, c terminus: a fixed tail appended) is on record?
A: 2.12

Q: With LIVVTQSHLVIHNLFEGMIWFIVP as the protein, how does the protein stability index (parent: IOH10978_35, c terminus: a fixed tail appended) read?
A: 2.99

Q: For FSHDGLHVASLADDKMVRFWRIDE, which protein stability index (parent: IOH12660_54, c terminus: a fixed tail appended) is on record?
A: 1.85

Q: Which protein stability index (parent: IOH10978_57, c terminus: a fixed tail appended) does the source give for IHSIALSTFASLIGPFGGFFASGF here?
A: 3.13

Q: Which protein stability index (parent: IOH11256_3, c terminus: a fixed tail appended) does the source give for IKRTIRVLDVNNQSFREQEEPSNK here?
A: 3.53

Q: With EPLPVERDPAAGAAPFRFVARPVR as the protein, how does the protein stability index (parent: IOH11805_4, c terminus: a fixed tail appended) read?
A: 2.21

Q: With FVESSGGGSSAVGQFVSLDGAGKT as the protein, how does the protein stability index (parent: IOH11305_8, c terminus: a fixed tail appended) read?
A: 2.44

Q: With ILREELQKQRLREILEQQQQERND [ZNF277 WT] as the protein, how does the protein stability index (parent: IOH12086_23, c terminus: a fixed tail appended) read?
A: 4.26

Q: Which protein stability index (parent: IOH11805_6, c terminus: a fixed tail appended) does the source give for AAPFRFVARPVRFPREHQFFEDGD here?
A: 2.1

Q: For FPESETKECPFRVNKVCGAACSSK [SERPINB5 WT], which protein stability index (parent: IOH12329_30, c terminus: a fixed tail appended) is on record?
A: 2.39

Q: With YARYHQAFADRDQSERQRHESQQL as the protein, how does the protein stability index (parent: IOH11065_9, c terminus: a fixed tail appended) read?
A: 2.09

Q: For SEVEELNMSLTALREKLLEAEQSL, which protein stability index (parent: IOH11065_62, c terminus: a fixed tail appended) is on record?
A: 2.99

Q: For RVRPLARVTSLANLISPVRNGAVR, which protein stability index (parent: IOH11256_7, c terminus: a fixed tail appended) is on record?
A: 3.05

Q: For VGAAGSARQELLGDRPRWQRLLGE, which protein stability index (parent: IOH11833_41, c terminus: a fixed tail appended) is on record?
A: 3.32

Q: Which protein stability index (parent: IOH11779_7, c terminus: a fixed tail appended) does the source give for AEVSWEPGRREGCDICAGKAGCPI [RPS21 WT] here?
A: 3.06

Q: Which protein stability index (parent: IOH11095_79, c terminus: a fixed tail appended) does the source give for TLARCAKDILGFAVMFFIVFFAYA here?
A: 2.95

Q: Which protein stability index (parent: IOH11095_61, c terminus: a fixed tail appended) does the source give for VFIFYYVVEEILELHIHRLRYLSS here?
A: 2.92

Q: For IAQYALLGYFIRSWRTLAILVNLQ [SLC22A15 WT], which protein stability index (parent: IOH10897_34, c terminus: a fixed tail appended) is on record?
A: 2.63

Q: Which protein stability index (parent: IOH11603_37, c terminus: a fixed tail appended) does the source give for YQNHKITQLKIENNPFAKGFRGSD here?
A: 2.57
